# Reference: US20200199244A1 (published 2020)
# Values joined by “and” are separate entries in the source; they are usually repeats but may differ in a detail not shown here. Equal values may be shown once.
# B1: BMS3h-38-211 (other)
# VH: EVQLLASGGGLVQPGGSLRLSCAASGFTFEEEEMIWVRQAPGKGLEWVSAISRQGGSTYYADSVKGRFTISRDNSKNTLYLQMNSLRAEDTAVYYCGKEPFRYDYWGQGTLVTVSS
# notes: domain antibody (dAb), single VH domain
# B2: BMS3h-38-217 (other)
# VH: EVQLLASGGGLVQPGGSLRLSCAASGFTFEEEEMIWVRQAPGKGLEWVSAISRRGYSTYYADSVKGRFTISRDNSKNTLYLQMNSLRAEDTAVYYCGKEPFRYDYWGQGTLVTVSS
# notes: Anti-human CD40 domain antibody (dAb), single VH domain
# B3: BMS3h-38-215 (other)
# VH: EVQLLASGGGLVQPGGSLRLSCAASGFTFEEEEMIWVRQAPGKGLEWVSAISGLGWSTYYADSVKGRFTISRDNSKNTLYLQMNSLRAEDTAVYYCGKEPFRYDYWGQGTLVTVSS
# notes: as for B1
# B4: BMS3h-38-217 (other)
# VH: EVQLLASGGGLVQPGGSLRLSCAASGFTFEEEEMIWVRQAPGKGLEWVSAISRRGYSTYYADSVKGRFTISRDNSKNTLYLQMNSLRAEDTAVYYCGKEPFRYDYWGQGTLVTVSS
# notes: as for B1
# B5: BMS3h-38-211 (other)
# VH: EVQLLASGGGLVQPGGSLRLSCAASGFTFEEEEMIWVRQAPGKGLEWVSAISRQGGSTYYADSVKGRFTISRDNSKNTLYLQMNSLRAEDTAVYYCGKEPFRYDYWGQGTLVTVSS
# notes: as for B2
# B6: BMS3h-38-215 (other)
# VH: EVQLLASGGGLVQPGGSLRLSCAASGFTFEEEEMIWVRQAPGKGLEWVSAISGLGWSTYYADSVKGRFTISRDNSKNTLYLQMNSLRAEDTAVYYCGKEPFRYDYWGQGTLVTVSS
# notes: as for B2
# B7: BMS3h-56-2 (other)
# VH: EVQLLESGGGLVQPGGSLRLSCAASGFTFRDYEMWWVRQAPGKGLERVSAINPQGTRTYYADSVKGRFTISRDNSKNTLYLQMNSLRAEDTAVYYCAKLPFTFDDWGQGTLVTVSS
# notes: Anti-human CD40 domain antibody (dAb), a single human VH domain
# B8: BMS3h-231 (other)
# VH: EVQLLESGGGLVQPGGSLRLSCAASGFTFSAYNMWWARQAPGKGLEWVSWINSTGSRTYYADSVKGRFTISRDNSKNTLYLQMNSLRAEDTAVYYCAKNWHRGRFDYWGQGTLVTVSS
# notes: dAb, single VH
# B9: BMS3h-37-2 (other)
# VH: EVQLLESGGGLVQPGGSLRLSCAASGFTFEWYEMQWVRRAPGKGLEWVSAISGDGYRTYYADSVKGRFTISRDNSKNTLYLQMNSLRAEDTAVYYCAKELGYFDYWGRGTLVTVSS
# notes: as for B2
# B10: BMS3h-37-11 (other)
# VH: EVQLLESGGGLVQPGGSLRLSCAASGFTFEWYEMQWVRKAPGKGLEWVSAISGDGYRTYYADSVKGRFTISRDNSKNTLYLQMNSLRAEDTAVYYCAKELGYFDYRGRGTLVTVSS
# notes: as for B2
# B11: BMS3h-233 (other)
# VH: EVQLLESGGGLVQPGGSLRLSCAASGFTFAHYNMRWVRQAPGKGLEWVSTITKTGFRTYYADSVKGRFTISRDNSKNTLYLQMNSLRAEDTAVYYCAKAGQFDFDYWGQGTLVTVSS
# notes: dAb, single VH
# B12: BMS3h-257 (other)
# VH: EVQLLESGGGLVQPGGSLRLSCAASGFTFQNYQMAWVRQAPGKGLEWVSTISGTGKNTYYADSVKGRFTISRDNSKNTLYLQMNSLRAEDTAVYYCAKTPQNYFSVRRFDYWGQGTLVTVSS
# notes: dAb, single VH
# What was measured:
# [1] = molecular target: T1, human CD40 (W109L, L121P) Fc fusion (human, UniProt P25942 21-193); assay: SPR ProteOn XPR36;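 note: surface plasmon resonance with CD40-Fc fusions captured through their Fc on an anti-human IgG chip, sensorgrams reference-subtracted against surfaces lacking CD40-Fc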
# T1 construct: As m1 with W109L and L121P; also called hCD40-M4; not shown: human IgG1 Fc
# [2] = molecular target: T2, human CD40 (W109R) Fc fusion (Chimpanzee CD40) (human, UniProt P25942 21-193); assay: SPR ProteOn XPR36;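 note: surface plasmon resonance with CD40-Fc fusions captured through their Fc on an anti-human IgG chip, sensorgrams reference-subtracted against surfaces lacking CD40-Fc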
# T2 construct: As m1 with W109R (residue of chimpanzee CD40); also called hCD40-M3; not shown: human IgG1 Fc
# [3] = molecular target: T3, human CD40 (H76R, W109L, L121P) Fc fusion (human); assay: SPR ProteOn XPR36;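 note: surface plasmon resonance with CD40-Fc fusions captured through their Fc on an anti-human IgG chip, sensorgrams reference-subtracted against surfaces lacking CD40-Fc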
# T3 construct: As m1 with H76R, W109L and L121P; also called hCD40-M5; not shown: human IgG1 Fc
# T3 chain: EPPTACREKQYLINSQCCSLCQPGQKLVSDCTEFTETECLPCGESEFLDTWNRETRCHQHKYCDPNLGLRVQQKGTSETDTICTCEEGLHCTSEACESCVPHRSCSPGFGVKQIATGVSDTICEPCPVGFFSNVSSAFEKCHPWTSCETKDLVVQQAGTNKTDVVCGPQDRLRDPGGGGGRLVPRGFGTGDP
# [4] = molecular target: T4, wild type cynomolgus monkey CD40 Fc fusion (cynomolgus monkey; human); assay: SPR ProteOn XPR36;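 note: surface plasmon resonance with CD40-Fc fusions captured through their Fc on an anti-human IgG chip, sensorgrams reference-subtracted against surfaces lacking CD40-Fc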
# T4 construct: also called wt-cyno-CD40; wt-cCD40; not shown: human IgG1 Fc
# T4 chain: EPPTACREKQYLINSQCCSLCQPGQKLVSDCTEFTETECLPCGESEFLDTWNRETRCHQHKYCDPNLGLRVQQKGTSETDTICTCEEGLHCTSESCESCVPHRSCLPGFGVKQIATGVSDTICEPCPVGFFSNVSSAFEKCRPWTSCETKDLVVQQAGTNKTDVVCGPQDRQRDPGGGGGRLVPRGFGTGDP
# [5] = molecular target: T5, wild type human CD40 Fc fusion (human, UniProt P25942 21-193); assay: SPR ProteOn XPR36, CD40-Fc captured, dAb analyte
# T5 construct: also called wt-hCD40; not shown: human IgG1 Fc
# [6] = molecular target: T6, human CD40 (H76R) Fc fusion (human, UniProt P25942 21-193); assay: SPR ProteOn XPR36, CD40-Fc captured, dAb analyte
# T6 construct: As m1 with H76R; also called hCD40-M1; not shown: human IgG1 Fc
# [7] = molecular target: T7, wild type cynomolgus monkey CD40 Fc fusion (cynomolgus monkey (Macaca …)); assay: SPR, ProteOn XPR36; CD40-Fc captured, dAb analyte
# T7 construct: also called wt-cCD40; wt-cyno-CD40; not shown: human IgG1 Fc
# T7 chain: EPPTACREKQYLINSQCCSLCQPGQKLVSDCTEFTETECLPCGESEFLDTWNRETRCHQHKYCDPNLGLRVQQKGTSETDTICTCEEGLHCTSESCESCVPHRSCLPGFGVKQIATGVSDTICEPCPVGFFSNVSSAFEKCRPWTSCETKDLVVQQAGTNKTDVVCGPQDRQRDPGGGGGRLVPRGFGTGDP
# [8] = molecular target: T8, human CD40 (W109L, L121P) Fc fusion (human, UniProt P25942 21-193); assay: SPR, ProteOn XPR36; CD40-Fc captured, dAb analyte
# T8 construct: Same construct as wt-hCD40 with W109L and L121P; also called hCD40-M4; hCD40 M4 (W109L, L121P); not shown: human IgG1 Fc
# [9] = molecular target: T9, human CD40 (W109R) Fc fusion (Chimpanzee CD40) (human, UniProt P25942 21-193); assay: SPR, ProteOn XPR36; CD40-Fc captured, dAb analyte
# T9 construct: Same construct as wt-hCD40 with W109R (the residue of chimpanzee CD40); also called hCD40-M3; hCD40 M3 (W109R); not shown: human IgG1 Fc
# [10] = molecular target: T10, human CD40 (H76R, W109L, L121P) Fc fusion (human); assay: SPR, ProteOn XPR36; CD40-Fc captured, dAb analyte
# T10 construct: Same construct as wt-hCD40 with H76R, W109L and L121P; also called hCD40-M5; hCD40-M5 (H76R, W109L, L121P); not shown: human IgG1 Fc
# T10 chain: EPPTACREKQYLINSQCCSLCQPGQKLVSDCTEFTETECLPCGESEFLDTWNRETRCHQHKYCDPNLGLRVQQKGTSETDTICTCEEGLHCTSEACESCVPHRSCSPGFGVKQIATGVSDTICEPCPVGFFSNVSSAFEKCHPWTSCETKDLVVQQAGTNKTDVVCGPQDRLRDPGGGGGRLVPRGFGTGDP
# [11] = molecular target: T11, wild type human CD40 Fc fusion (human, UniProt P25942 21-193); assay: SPR, ProteOn XPR36; CD40-Fc captured, dAb analyte; 1:1 fit;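 for Kd: CD40-Fc captured on anti-human IgG(Fc) surface of a GLC chip, buffer pH 7.1, sensorgrams double-referenced against surfaces without CD40-Fc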;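 for koff: CD40-Fc captured on anti-human IgG(Fc) surface of a GLC chip, buffer pH 7.1, sensorgrams double-referenced against surfaces without CD40-Fc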;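 for kon: CD40-Fc captured on anti-human IgG(Fc) surface of a GLC chip, buffer pH 7.1, sensorgrams double-referenced against surfaces without CD40-Fc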
# T11 construct: also called wt-hCD40; not shown: human IgG1 Fc
# [12] = molecular target: T12, human CD40 (H76R) Fc fusion (human, UniProt P25942 21-193); assay: as above
# T12 construct: also called hCD40-M1; hCD40 M1 (H76R); not shown: human IgG1 Fc
# [13] = molecular target: T11, wild type human CD40 Fc fusion; assay: SPR, ProteOn XPR36; CD40-Fc captured, dAb analyte; 1:1 fit; repeat
# Method: Assays were performed on a BioRad ProteOn XPR36 SPR instrument. The SPR surfaces were prepared by immobilizing 8 μg/ml anti-human IgG(Fc) antibody (Biacore/GE Healthcare) in 10 mM sodium acetate pH 4.5 on a BioRad GLC sensor chip using standard ethyl(dimethylaminopropyl) carbodiimide (EDC)/N-hydroxysuccinimide (NHS) chemistry, with ethanolamine blocking. The running buffer for immobilization and kinetic binding analysis was 10 mM sodium phosphate, 130 mM sodium chloride, 0.05% tween 20, pH 7.1. CD40-Fc fusion proteins at concentrations of 20 μg/ml were captured in the vertical orientation on these surfaces via the Fc tail, and reference surfaces lacking CD40-Fc proteins were used for reference subtraction. […] The surfaces were regenerated in both horizontal and vertical orientations with 30 s pulses of 3 M MgCl₂ followed by running buffer at 60 μl/min. Sensogram data was double-referenced and then fitted to a 1:1 Langmuir model using BioRad ProteOn Manager V.2.1.0.38 software, to determine the association rate constant (ka), the dissociation rate constant (kd), and the equilibrium dissociation constant (KD).
# [14] = molecular target: T13, wild type cynomolgus monkey CD40 Fc fusion (cynomolgus monkey (Macaca …)); assay: SPR (ProteOn XPR36), CD40-Fc captured via anti-human IgG(Fc), dAb as analyte, 25 C
# T13 construct: also called wt-cyno-CD40; wt-cCD40; not shown: human IgG1 Fc
# T13 chain: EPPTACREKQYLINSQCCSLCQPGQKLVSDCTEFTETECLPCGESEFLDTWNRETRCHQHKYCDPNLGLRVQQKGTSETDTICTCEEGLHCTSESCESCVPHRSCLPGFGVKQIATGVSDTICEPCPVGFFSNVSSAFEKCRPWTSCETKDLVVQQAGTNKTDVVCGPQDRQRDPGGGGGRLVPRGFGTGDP
# [15] = molecular target: T14, human CD40 (BMS, CY24FEB06-01) (human, UniProt P25942 21-193); assay: ELISA RBA, competition with IZ-CD40L
# T14 construct: Soluble reagent of the bead and ELISA RBA; It is detected with an anti-human IgG (Fc) mAb, so it may be a CD40-Ig fusion
# Method: Clear walled High Bind, 384-well plates (Corning, UK) were coated with 25 μl of 1 μg/ml Neutravidin in 0.2 M carbonate-bicarbonate buffer, pH 9.4 overnight at 4° C. The following day, assay plates were washed with 0.1% (v/v) Tween PBS buffer, blocked with 1% (w/v) BSA in PBS for 1 hour at room temperature and washed again. […] Following washing of the assay plate, the dAb:human CD40 complex was incubated in the assay plate at room temperature for 2 hours with gentle agitation. […] Absorbance signal was measured using a SpectraMax® M5e plate reader (Molecular Devices) at 450 nm following neutralization with 1M HCl solution.
Binder,binding result [7],binding result [8],binding result [9],binding result [10],Kd [11] [nM],koff [11] [s⁻¹],kon [11] [M⁻¹ s⁻¹],Kd [12] [nM],koff [12] [s⁻¹],kon [12] [M⁻¹ s⁻¹],Kd [13] [nM],koff [13] [s⁻¹],kon [13] [M⁻¹ s⁻¹],also measured
B1,–,–,–,–,–,–,–,–,–,–,–,–,–,binding result [1]: no binding (tested: 405 nM); binding result [2]: no binding (tested: 405 nM); binding result [3]: no binding (tested: 405 nM); binding result [4]: no binding (tested: 405 nM); Kd [5]: 3.3 nM and 6.1 nM; Kd [6]: 4 nM
B2,no binding (tested: dAb tested up to 405 nM),no binding (tested: dAb tested up to 405 nM),no binding (tested: dAb tested up to 405 nM),no binding (tested: dAb tested up to 405 nM),2.34,0.000296,127000,3.41,0.000481,141000,2.37,0.00034,144000,–
B3,–,–,–,–,–,–,–,–,–,–,–,–,–,binding result [1]: no binding (tested: 405 nM); binding result [2]: no binding (tested: 405 nM); binding result [3]: no binding (tested: 405 nM); binding result [4]: no binding (tested: 405 nM); Kd [5]: 2.1 nM and 6 nM; Kd [6]: 3 nM
B4,–,–,–,–,–,–,–,–,–,–,–,–,–,binding result [1]: no binding (tested: 405 nM); binding result [2]: no binding (tested: 405 nM); binding result [3]: no binding (tested: 405 nM); binding result [4]: no binding (tested: 405 nM); Kd [5]: 2.3 nM and 2.4 nM; Kd [6]: 3.4 nM
B5,no binding (tested: dAb tested up to 405 nM),no binding (tested: dAb tested up to 405 nM),no binding (tested: dAb tested up to 405 nM),no binding (tested: dAb tested up to 405 nM),3.26,0.000362,111000,3.98,0.00051,128000,6.08,0.000728,120000,–
B6,no binding (tested: dAb tested up to 405 nM),no binding (tested: dAb tested up to 405 nM),no binding (tested: dAb tested up to 405 nM),no binding (tested: dAb tested up to 405 nM),2.1,0.000288,137000,3.03,0.00053,175000,6.02,0.00082,136000,–
B7,–,–,–,–,–,–,–,–,–,–,–,–,–,binding result [14]: no binding (tested: 405 nM (highest dAb concentration))
B8,–,–,–,–,–,–,–,–,–,–,–,–,–,EC50 [15]: 670 nM and 870 nM
B9,no binding (tested: dAb tested up to 405 nM),no binding (tested: dAb tested up to 405 nM),no binding (tested: dAb tested up to 405 nM),no binding (tested: dAb tested up to 405 nM),1.96,0.000417,212000,2.58,0.000562,217000,2,0.000426,213000,–
B10,no binding (tested: dAb tested up to 405 nM),no binding (tested: dAb tested up to 405 nM),no binding (tested: dAb tested up to 405 nM),no binding (tested: dAb tested up to 405 nM),1.92,0.00056,291000,2.39,0.000717,300000,2.28,0.00064,281000,–
B11,–,–,–,–,–,–,–,–,–,–,–,–,–,EC50 [15]: 2770 nM
B12,–,–,–,–,–,–,–,–,–,–,–,–,–,EC50 [15]: 3210 nM and 1340 nM
